Test results published in publication PMC12016715.

Target: SARS-CoV-2 spike (S)-trimer protein (SARS-CoV-2) (UniProt P0DTC2)
Assay: SEC

Question: “SARS-CoV-2 spike (S)-trimer protein (from UniProt P0DTC2 16-1209) (domain or fragment)” was tested. Which stoichiometry N did it give?
Answer: 3
